The values that follow come from PMC6077248.

In the assay the target is Venus-Gβ2γ7 (Venus 156-239-Gβ2 with Venus 1-155-Gγ7), P62879-1;O60262. The assay is described as follows: BRET (suppression of GRK3ct-Gβ2γ7 BRET by competing Gαolf). Conditions: chain shown with the change; HEK293T/17 cells; parent: est. 100; read off a plot.

B1: G protein α subunit Gαolf, wild type, P38405 P102_V104del (protein)
chain: MGCLGGNSKTTEDQGVDEKERREANKKIEKQLQKERLAYKATHRLLLLGAGESGKSTIVKQMRILHVNGFNPEEKKQKILDIRKNVKDAIVTIVSAMSTIIPLANPENQFRSDYIKSIAPITDFEYSQEFFDHVKKLWDDEGVKACFERSNEYQLIDCAQYFLERIDSVSLVDYTPTDQDLLRCRVLTSGIFETRFQVDKVNFHMFDVGGQRDERRKWIQCFNDVTAIIYVAACSSYNMVIREDNNTNRLRESLDLFESIWNNRWLRTISIILFLNKQDMLAEKVLAGKSKIEDYFPEYANYTVPEDATPDAGEDPKVTRAKFFIRDLFLRISTATGDGKHYCYPHFTCAVDTENIRRVFNDCRDIIQRMHLKQYELL
Regarding B1, the percent of parent is 29%.
